The supplement of paper PMC10567573

B1: TRIM63 (parent)
chain: ANPYWTSRGSSVSMSGGRFRCPTC

Variants of: B1
Assay: protein stability index of a GFP-peptide fusion (GPS, HEK-293T) (PSI 1-6); higher = more stable
Settings: c terminus: a fixed tail appended
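Note: lentivirally expressed fusions sorted by FACS into six bins by GFP to DsRed ratio, PSI derived from sequencing read proportions per bin multiplied by bin number.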

Protein stability index of substitutions, site by site:
R8: F 1.27 | A 1.85 | E 3.19 | Y 1.71 | N 1.92 | T 1.8 | C 1.23 | L 2.33 | Q 1.99 | K 1.95 | P 1.55 | V 1.95 | I 1.4 | H 1.41 | M 1.39 | G 1.55 | S 1.65 | D 1.91
S10: A 1.68 | K 1.65 | Y 1.57 | W 3.35 | V 1.72 | E 1.76 | H 2.44 | M 1.84 | F 2.56 | Q 2.83 | C 2.18 | L 1.46 | T 2.24 | P 1.75
V12: R 1.32 | N 2.03 | F 1.64 | Y 1.69 | E 2.16 | G 2.1 | L 1.29 | T 2.9 | M 1.63 | S 2.46 | A 1.49 | W 2.87 | I 2.46 | P 2.78 | K 2.19 | H 1.98 | D 1.67
M14: P 2.64 | K 1.85 | F 2.04 | Q 1.41 | H 2.21 | L 2.21 | G 1.83 | N 2.03 | V 1.86 | S 2.32
C24: Y 3.28 | N 2.66 | E 3.19 | F 2.55 | K 2.84 | D 3.73 | M 2.07 | V 2.3 | R 4.13 | P 3.22 | H 2.29 | Q 2.12 | T 2.69 | S 2.88 | G 3.18 | I 2.05
W5: S 1.9 | Y 1.7 | T 1.76 | V 2.59
G16: Q 1.7 | C 1.91 | P 2.08 | M 1.83 | E 1.58 | N 1.34 | R 1.05 | K 2.1 | V 1.3 | F 1.32 | H 2.42 | T 1.96 | A 1.72 | W 1.8 | Y 2.24 | D 2.23
S15: A 2.94 | P 2.09 | L 2.03 | I 1.4 | W 1.8 | E 2.1 | Y 1.57 | H 1.87 | F 2.61 | N 1.01 | C 2.02 | D 2.3 | T 1.43 | Q 2.58
R20: W 2.43 | C 2.12 | A 2.38 | I 1.91 | L 1.51 | T 1.78 | M 2.12 | H 1.85 | Y 1.96 | S 2.32 | Q 1.84 | P 2.4 | K 2.61 | E 1.74 | F 1.27 | G 1.82 | V 2.13 | D 2.79 | N 1.57
T23: M 2.44 | Q 1.95 | D 1.71 | S 2.52 | P 2.26 | A 1.87 | Y 1.75 | V 1.34 | W 2.47 | H 2.28 | L 2.58 | K 3.23 | G 3.11 | F 1.45 | E 1.69 | N 2.03 | R 2.43
P22: V 2.56 | I 2.75 | H 2.39 | R 2.12 | S 2.19 | T 2.69 | N 2.5 | L 1.24 | Q 2.87 | K 1.98 | M 1.97 | D 2.22 | F 2.97 | C 1.89
G17: T 1.17 | I 2.27 | Q 2.07 | F 1.72 | V 2.77 | L 1.81 | A 1.84 | E 1.7
